We go through 6 molecules from patent US20240133885A1 (UNIVERSITY OF SOUTHERN CALIFORNIA, published 2024).

Assay [1] addresses T1, CD324-hSC10-17-(vL-vH)-MYC-BBz-T2A-PAC.
T1 construct: Entry = whole construct incl; T2A-PAC; also called CDH1/CD324-specific CAR; 052516-A07
As to the kind of experiment: NLuc assay, supernatant on 293FT cells transfected with the CAR.

Assay [2] has as its target T2, CD324-SC10-6-(vL-vH)-MYC-BBz-T2A-PAC.
T2 construct: Entry = whole construct incl; T2A-PAC; also called CDH1/CD324-specific CAR; 052516-B07
Described as above.

Assay [3] deals with T3, CD19 (human, UniProt P15391 20-556).
T3 construct: whole, on cells; Endogenous antigen of the cell lines tested (RAJI stated CD19 positive); also called human CD19
The experiment in a line: Luc assay, supernatant on HL60 cells (stated CD19-, CD20-, CD33+).

Assay [4] concerns the target T3, CD19. As to the kind of experiment: Luc assay, supernatant on Raji cells (stated CD19+, CD20+, CD33-).
Assay [5] concerns the target T3, CD19. The experiment in a line: Luc assay, supernatant on BC1 cells.
The target of assay [6] is T3, CD19. As to the kind of experiment: Luc assay, supernatant on JSC-1 cells.
For assay [7], the target named is T3, CD19. As to the kind of experiment: Luc assay, supernatant on RAJI cells.
In assay [8] the target is T3, CD19. As to the kind of experiment: Luc assay, supernatant on BCBL-1 cells.
The target in assay [9] is T3, CD19. As to the kind of experiment: Luc assay, supernatant on U266 cells.
Assay [10] deals with T3, CD19. The experiment in a line: Luc assay, supernatant on BC-3 cells.
In assay [11] the target is T3, CD19. The experiment in a line: Luc assay, supernatant on BV173 cells.
For assay [12], the target named is T3, CD19. As to the kind of experiment: Luc assay, supernatant on MM1S cells.
Assay [13] concerns the target T4, Luc90-(vL-vH)-MYC-CD28z-T2A-Pac.
T4 construct: Entry = whole construct incl; T2A-Pac; also called SLAMF7/CS1-specific CAR; 031915-F03
As to the kind of experiment: NLuc assay, supernatant on transfected 293FT cells.

In assay [14] the target is T5, CD200R-huDx182-(vL-vH)-Myc-BBz-T2A-PAC.
T5 construct: Entry = whole construct incl; T2A-PAC; also called CD200R-specific CAR
The experiment in a line: NLuc assay, supernatant on transfected 293FT cells.

In assay [15] the target is T1, CD324-hSC10-17-(vL-vH)-MYC-BBz-T2A-PAC. The experiment in a line: NLuc assay, supernatant on transfected 293FT cells.
Assay [16] deals with T2, CD324-SC10-6-(vL-vH)-MYC-BBz-T2A-PAC. As to the kind of experiment: NLuc assay, supernatant on transfected 293FT cells.
In assay [17] the target is T4, Luc90-(vL-vH)-MYC-CD28z-T2A-Pac. The experiment in a line: NLuc assay, supernatant on 293FT cells transfected with the CAR.
Assay [18] concerns the target T6, FMC63-(vL-vH)-Myc-BBz-T2A-Pac.
T6 construct: Entry = whole construct incl; T2A-Pac; also called FMC63-CAR; CD19 (FMC63)-CAR
The description is as above.

For assay [19], the target named is T7, J6MO-(vL-vH)-MYC-28z-T2A-Pac.
T7 construct: CAR on NK92MI cells; Entry = whole construct incl; T2A-Pac; also called BCMA-specific CAR; 031915-G02
As to the kind of experiment: NLuc assay, supernatant on NK92MI cells expressing the CAR.

In assay [20] the target is T6, FMC63-(vL-vH)-Myc-BBz-T2A-Pac. The experiment in a line: NLuc assay, supernatant on 293FT cells transfected with the CAR. This is another data set of the same source.
For assay [21] the target is unchanged. As to the kind of experiment: NLuc assay, supernatant on CAR T cells.

Like-named read-outs stand apart in the source and are kept apart here.

B1: CDH1-ECD-GGSG-NLuc-4xFlag-2xStreptag-8xHis-T2A-Pac (receptor)
chain: not shown
notes: Entry = whole insert incl; T2A-Pac; also called 062816-G02
Regarding B1, the entries for the “Mean Luc activity” value in assay [1] and in assay [2] were 2.02e+06 and 2.9e+06, respectively.

B2: CD8SP-hCD19-Bu12-(vL-vH)-GGSG-NLuc-AcV5 (scFv)
scFv: not shown
notes: Entry = whole insert incl. signal peptide; also called 021417-T05
Consider B2, for which the “Mean Luc activity” value was determined as 1610 with CD19 [3] and 358000 with CD19 [4].

B3: CD8SP-CD19-4G7-(vL-vH)-GGSG-NLuc-4xFLAG-x2STREP-8xHis-T2A-PAC (scFv)
scFv: not shown
notes: Entry = whole insert incl. signal peptide and T2A-PAC; also called 062916-C08
Turning to B3, the “Mean Luc activity” value with CD19 [5] was 52300; in the assay with CD19 [7], 397000. For the same molecule, the Luc activity stood at 13300 in the assay with CD19 [6]; 14000 with CD19 [8]; 6540 with CD19 [9]; 6180 with CD19 [10]; 121000 with CD19 [11]; 10400 with CD19 [12].

B4: FLAG-CD19-ECD-GGSG-NLuc-AcV5 (receptor)
chain: not shown
notes: Entry = whole insert incl; CD19 signal peptide, FLAG tag, linker, NLuc, AcV5; also called CD19-GGSG-NLuc-AcV5
As to B4, the binding result in [13], in assay [14], in assay [15], in [16] and in [19] was “no binding” each time. For the same molecule, the “Mean Luc activity” value in assay [17] stood at 3830; in assay [18], 237000; in assay [1], 5190; in assay [20], 237000; in assay [2], 16400. Besides, the “fold NLuc value over uninfected or control CAR cells” value in assay [21] is more than 85 fold.

B5: SLAMF7-CS1-ECD-GGSG-NLuc-4xFlag-2xStreptag-8xHis-T2A-Pac (receptor)
chain: not shown
notes: Entry = whole insert incl; T2A-Pac; also called 062816-A01
For B5, the “Mean Luc activity” value in assay [17] came out at 100000.

B6: CD8SP-CD19-4G7-Mlu-GSG-NLuc-AcV5 (scFv)
scFv: not shown
notes: Entry = whole insert incl. signal peptide; also called 021417-Z04
With B6, the results for the “Mean Luc activity” value in the assay with CD19 [3] and with CD19 [4] were 4320 and 380000, respectively.
